Source: US20260151499A1, “ANTIBODY DERIVATIVE AND USE THEREOF” (TSINGHUA UNIVERSITY, priority 2023, published 2026)
Where “and” joins values, the source holds several entries; their conditions need not be identical. Identical values can stand only once. Like-named read-outs stand apart in the source and are kept apart here.

Key:
CD73 = target: T1, CD73 (Homo sapiens, UniProt P21589); assay: CD73 inhibition, AMP hydrolysis, malachite green phosphate assay; type: biochemical; details: for IC50: full-length IgG1 conjugated to BN3, read-out: IC50 ± SD (nM) of Ab-BN3 for inhibition of CD73
T1 construct: His (Chis) (C); made in house; host or cells: 293 cells
T1 sequence (P21589 27-549 limits assumed): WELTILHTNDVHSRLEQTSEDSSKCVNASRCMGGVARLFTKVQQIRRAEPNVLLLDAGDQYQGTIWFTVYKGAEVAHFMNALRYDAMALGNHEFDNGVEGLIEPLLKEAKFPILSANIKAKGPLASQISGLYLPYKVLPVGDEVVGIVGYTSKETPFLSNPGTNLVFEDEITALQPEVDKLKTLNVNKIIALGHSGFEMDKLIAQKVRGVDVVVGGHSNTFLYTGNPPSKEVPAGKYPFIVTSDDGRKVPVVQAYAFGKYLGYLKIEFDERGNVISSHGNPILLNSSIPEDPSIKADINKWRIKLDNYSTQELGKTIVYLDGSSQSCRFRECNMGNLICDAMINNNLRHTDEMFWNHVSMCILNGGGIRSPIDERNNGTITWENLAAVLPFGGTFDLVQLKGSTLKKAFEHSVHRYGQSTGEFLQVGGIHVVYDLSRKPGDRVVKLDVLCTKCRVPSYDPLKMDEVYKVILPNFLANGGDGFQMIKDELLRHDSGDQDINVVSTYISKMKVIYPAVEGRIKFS

NaV1.7 = target: T2, NaV1.7 (Homo sapiens, UniProt Q15858); assay: Whole-cell patch clamp, HEK293-NaV1.7 cells; type: cell-based
T2 construct: expressed in transfected cells; host or cells: HEK293

NaV1.2 = target: T3, NaV1.2 (Homo sapiens, UniProt Q99250); assay: Whole-cell patch clamp, HEK293-NaV1.2 cells; type: cell-based; details: for inhibitory activity against NaV1.2 (in words): tested up to 500 nM
T3 construct: expressed in transfected cells; host or cells: HEK293

[1] = non-competitive screening clones, 15 min incubation, read-out: IC50 ± SEM (nM) of Ab-PEG3-ASF in inhibiting NaV1.7
[2] = competitive screening clones, read-out: IC50 ± SEM of NaV1.7-selective Ab-ASF

T3 sequence (Q99250 whole entry): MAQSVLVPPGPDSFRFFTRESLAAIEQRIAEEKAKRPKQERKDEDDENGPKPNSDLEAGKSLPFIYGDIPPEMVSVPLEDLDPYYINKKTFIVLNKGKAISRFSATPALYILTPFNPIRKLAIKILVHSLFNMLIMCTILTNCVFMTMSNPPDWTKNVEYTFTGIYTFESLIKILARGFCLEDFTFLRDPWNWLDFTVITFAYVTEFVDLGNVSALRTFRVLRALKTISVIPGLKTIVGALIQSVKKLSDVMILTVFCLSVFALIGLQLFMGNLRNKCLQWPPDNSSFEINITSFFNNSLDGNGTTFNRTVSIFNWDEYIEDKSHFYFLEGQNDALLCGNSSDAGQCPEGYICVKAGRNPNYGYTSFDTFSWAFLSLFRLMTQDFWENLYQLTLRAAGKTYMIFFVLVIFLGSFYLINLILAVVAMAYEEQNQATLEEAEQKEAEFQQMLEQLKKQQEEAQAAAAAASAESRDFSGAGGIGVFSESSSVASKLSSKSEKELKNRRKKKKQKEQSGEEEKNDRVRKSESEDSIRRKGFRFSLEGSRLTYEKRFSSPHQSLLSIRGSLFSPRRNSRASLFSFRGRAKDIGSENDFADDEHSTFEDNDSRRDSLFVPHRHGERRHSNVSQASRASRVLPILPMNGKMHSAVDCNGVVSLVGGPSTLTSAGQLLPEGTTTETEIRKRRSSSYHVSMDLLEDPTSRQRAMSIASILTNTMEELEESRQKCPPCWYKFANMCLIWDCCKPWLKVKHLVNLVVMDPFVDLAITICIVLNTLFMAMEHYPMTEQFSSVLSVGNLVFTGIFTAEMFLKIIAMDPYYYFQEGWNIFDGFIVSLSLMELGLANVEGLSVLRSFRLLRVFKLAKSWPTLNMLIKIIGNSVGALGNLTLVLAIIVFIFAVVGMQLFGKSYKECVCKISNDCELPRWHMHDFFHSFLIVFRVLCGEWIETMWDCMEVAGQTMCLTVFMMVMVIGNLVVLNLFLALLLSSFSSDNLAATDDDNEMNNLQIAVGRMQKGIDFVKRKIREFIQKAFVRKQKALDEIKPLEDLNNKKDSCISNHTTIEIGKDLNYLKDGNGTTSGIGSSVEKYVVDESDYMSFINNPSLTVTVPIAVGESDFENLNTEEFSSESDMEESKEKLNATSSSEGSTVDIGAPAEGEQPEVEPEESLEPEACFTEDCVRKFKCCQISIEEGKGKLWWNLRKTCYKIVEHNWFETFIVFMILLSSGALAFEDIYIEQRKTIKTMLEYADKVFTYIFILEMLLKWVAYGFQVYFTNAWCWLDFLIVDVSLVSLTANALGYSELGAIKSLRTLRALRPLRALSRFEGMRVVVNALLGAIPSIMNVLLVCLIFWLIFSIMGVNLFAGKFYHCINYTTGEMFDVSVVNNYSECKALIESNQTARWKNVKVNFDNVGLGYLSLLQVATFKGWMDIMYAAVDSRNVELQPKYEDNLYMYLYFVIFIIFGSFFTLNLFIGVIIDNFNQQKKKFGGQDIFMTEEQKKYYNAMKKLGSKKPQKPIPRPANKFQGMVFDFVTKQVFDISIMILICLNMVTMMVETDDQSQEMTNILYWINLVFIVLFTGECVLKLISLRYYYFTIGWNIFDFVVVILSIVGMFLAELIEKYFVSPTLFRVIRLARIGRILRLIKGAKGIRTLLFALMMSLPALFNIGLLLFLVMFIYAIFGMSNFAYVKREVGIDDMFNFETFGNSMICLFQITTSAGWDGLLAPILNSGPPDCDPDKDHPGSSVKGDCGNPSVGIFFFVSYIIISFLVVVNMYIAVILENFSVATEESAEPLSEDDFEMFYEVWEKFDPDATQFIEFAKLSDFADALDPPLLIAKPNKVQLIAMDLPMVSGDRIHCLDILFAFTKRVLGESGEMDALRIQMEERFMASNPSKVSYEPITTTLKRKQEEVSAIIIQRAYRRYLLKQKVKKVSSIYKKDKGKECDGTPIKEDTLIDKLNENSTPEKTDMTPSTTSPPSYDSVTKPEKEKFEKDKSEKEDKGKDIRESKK
T2 sequence (Q15858 whole entry): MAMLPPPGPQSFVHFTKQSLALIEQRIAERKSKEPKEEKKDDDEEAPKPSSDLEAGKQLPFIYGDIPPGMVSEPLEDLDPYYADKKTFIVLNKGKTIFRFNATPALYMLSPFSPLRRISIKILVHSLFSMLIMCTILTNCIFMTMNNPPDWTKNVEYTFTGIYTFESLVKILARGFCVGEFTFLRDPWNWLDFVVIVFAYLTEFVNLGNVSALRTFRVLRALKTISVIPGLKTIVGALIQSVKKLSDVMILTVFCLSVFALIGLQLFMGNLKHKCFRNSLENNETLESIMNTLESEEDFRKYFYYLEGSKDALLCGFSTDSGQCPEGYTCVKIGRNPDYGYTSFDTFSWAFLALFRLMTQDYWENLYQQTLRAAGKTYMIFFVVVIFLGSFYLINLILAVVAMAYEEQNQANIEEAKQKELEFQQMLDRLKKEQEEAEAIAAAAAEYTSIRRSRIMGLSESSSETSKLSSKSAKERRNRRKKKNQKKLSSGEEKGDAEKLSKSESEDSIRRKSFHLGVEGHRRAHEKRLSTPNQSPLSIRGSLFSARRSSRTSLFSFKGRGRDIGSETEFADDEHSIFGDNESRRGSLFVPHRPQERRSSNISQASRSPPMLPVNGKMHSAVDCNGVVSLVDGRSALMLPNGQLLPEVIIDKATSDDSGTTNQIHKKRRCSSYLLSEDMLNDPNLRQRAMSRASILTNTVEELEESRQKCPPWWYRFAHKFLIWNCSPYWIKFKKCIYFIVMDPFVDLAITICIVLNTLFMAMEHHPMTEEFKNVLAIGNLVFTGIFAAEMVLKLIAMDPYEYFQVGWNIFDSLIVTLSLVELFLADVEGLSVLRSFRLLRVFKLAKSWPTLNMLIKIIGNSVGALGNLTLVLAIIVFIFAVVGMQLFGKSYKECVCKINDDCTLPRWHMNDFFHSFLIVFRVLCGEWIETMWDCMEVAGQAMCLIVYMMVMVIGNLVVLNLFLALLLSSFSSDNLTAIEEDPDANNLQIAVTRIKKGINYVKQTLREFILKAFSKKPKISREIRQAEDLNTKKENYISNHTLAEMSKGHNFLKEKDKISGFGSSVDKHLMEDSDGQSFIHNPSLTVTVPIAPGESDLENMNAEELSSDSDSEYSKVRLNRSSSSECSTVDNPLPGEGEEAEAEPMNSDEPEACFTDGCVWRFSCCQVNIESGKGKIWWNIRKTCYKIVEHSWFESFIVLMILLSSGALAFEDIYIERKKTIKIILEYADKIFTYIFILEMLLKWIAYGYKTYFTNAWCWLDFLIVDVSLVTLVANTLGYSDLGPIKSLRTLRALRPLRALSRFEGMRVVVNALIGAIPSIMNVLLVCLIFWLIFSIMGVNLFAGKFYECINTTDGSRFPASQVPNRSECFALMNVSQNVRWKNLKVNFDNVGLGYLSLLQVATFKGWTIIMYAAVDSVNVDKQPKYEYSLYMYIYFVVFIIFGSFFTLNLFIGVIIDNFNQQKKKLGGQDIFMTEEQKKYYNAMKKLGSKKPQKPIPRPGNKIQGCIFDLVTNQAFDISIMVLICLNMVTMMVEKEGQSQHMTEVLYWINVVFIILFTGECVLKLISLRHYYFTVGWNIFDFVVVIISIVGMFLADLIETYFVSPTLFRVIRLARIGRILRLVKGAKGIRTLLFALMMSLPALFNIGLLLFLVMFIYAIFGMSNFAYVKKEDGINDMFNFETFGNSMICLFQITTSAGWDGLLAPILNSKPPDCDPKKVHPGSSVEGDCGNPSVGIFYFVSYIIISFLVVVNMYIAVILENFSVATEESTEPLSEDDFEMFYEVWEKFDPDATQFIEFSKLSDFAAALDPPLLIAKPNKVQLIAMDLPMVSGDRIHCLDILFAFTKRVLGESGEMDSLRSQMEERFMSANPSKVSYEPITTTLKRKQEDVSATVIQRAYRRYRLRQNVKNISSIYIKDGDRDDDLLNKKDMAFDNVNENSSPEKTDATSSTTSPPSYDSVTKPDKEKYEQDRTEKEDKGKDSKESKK

B1: 6D11: CD73 antibody clone, VH SEQ ID NO: 81, VL SEQ ID NO: 91 (antibody, V domains shown)
VH: EVQLVESGGGLVQPGGSLRLSCAASGFTFSGHWMHWVRQAPGKGLEWIGSIYYSGSTYYNPSLKSRVTISADTSKNTAYLQMNSLRAEDTAVYYCARDRGWLQFDYWGQGTLVTVSS
VL: DIQMTQSPSSLSASVGDRVTITCRASQNIGTYLAWYQQKPGKAPKLLIYDASNLETGVPSRFSGSRSGTDFTLTISSLQPEDFATYYCQQXYTTPPTFGQGTKLEI
modifications: VARIANT 91 natural amino acid or unnatural amino acid
Q: How did the “inhibitory activity against CD73 (in words)” value (CD73) turn out when B1 was run?
A: Its value is “weak inhibitory trend”.

Q: What about the IC50 (CD73) of the same molecule?
A: The IC50 was 0.464 nM.

B2: 15F9-PEG3-ASF: Ab-UAA 15F9 conjugated to ASF-PEG3-DBCO (conjugate)
VH: EVQLVESGGGLVQPGGSLRLSCAASGFTFSKFWMHWVRQAPGKGLEWVSSISSSSSYIYYADSVKGRFTISADTSKNTAYLQMNSLRAEDTAVYYCARDPISTGAFDIWGQGTLVTVSS
VL: DIQMTQSPSSLSASVGDRVTITCRASQSISSWLAWYQQKPGKAPKLLIYDASSLESGVPSRFSGSRSGTDFTLTISSLQPEDFATYYCQQXYTTPPTFGQGTKLEI
modifications: non-natural residues
notes: Ab-UAA 15F9 conjugated to ASF-PEG3-DBCO
Q: For B2, which “inhibitory activity against NaV1.7 at 10 nM (in words)” value (NaV1.7; 10 nM Ab-PEG3-ASF) is on record?
A: Its value is “essentially no inhibitory activity”.

B3: F3-PEG3-ASF: IgG1 Ab-UAA F3 conjugated with ASF-PEG3-DBCO (conjugate)
VH: EVQLVESGGGLVQPGGSLRLSCAASGFTFSGHWMHWVRQAPGKGLEWVASISDSSSYIYYADSVRGRFTISRDNAKKTLYLQMNSLRAEDTAVYYCARDYEGATRAADYWGQGTLVTVSS
VL: DIQMTQSPSSLSASVGDRVTITCRASQVIGNDLGWYQQKPGKAPKLLIYDVSNVQTGVPSRFSGSRSGTDFTLTISSLQPEDFATYYCQQXYTTPPTFGQGTKLEI
modifications: non-natural residues
notes: IgG1 Ab-UAA F3 conjugated with ASF-PEG3-DBCO
Q: Which results are given for B3?
A: IC50 (NaV1.7; [1]): 2.69 ± 0.687 nM; inhibitory activity against NaV1.2 (in words) (NaV1.2): no inhibitory activity

B4: 15F7-PEG3-ASF: Ab-UAA 15F7 conjugated to ASF-PEG3-DBCO (conjugate)
VH: EVQLVESGGGLVQPGGSLRLSCAASGFTFSGHWMHWVRQAPGKGLEWVSAISGSGGSTYYADSVKGRFTISADTSKNTAYLQMNSLRAEDTAVYYCAREVTMVRGVTDAFDIWGQGTLVTVSS
VL: DIQMTQSPSSLSASVGDRVTITCRASQGISSDLGWYQQKPGKAPKLLIYDVSNVQTGVPSRFSGSRSGTDFTLTISSLQPEDFATYYCQQXYTTPPTFGQGTKLEI
modifications: non-natural residues
notes: Ab-UAA 15F7 conjugated to ASF-PEG3-DBCO
Q: What does the source list for B4?
A: inhibition rate of NaV1.7 at 10 nM (NaV1.7; 10 nM Ab-PEG3-ASF): about 60%; IC50 (NaV1.7; [2]): 6.48 nM and 6.5 nM

B5: G3-PEG3-ASF: IgG1 Ab-UAA G3 conjugated with ASF-PEG3-DBCO (conjugate)
VH: EVQLVESGGGLVQPGGSLRLSCAASGFTFSASYMSWVRQAPGKGLEWIGSIYYSGSTYYNPSLKSRVTISADTSKNTAYLQMNSLRAEDTAVYYCARGAPYYEGAFDIWGQGTLVTVSS
VL: DIQMTQSPSSLSASVGDRVTITCRASQYISTYLNWYQQKPGKAPKVLISKTSYLESGVPSRFSGSRSGTDFTLTISSLQPEDFATYYCQQXYTTPPTFGQGTKLEI
modifications: non-natural residues
notes: IgG1 Ab-UAA G3 conjugated with ASF-PEG3-DBCO
Q: For B5, which IC50 (NaV1.7; [1]) is on record?
A: Its IC50 is 1.88 ± 0.394 nM.

Q: What about the “inhibition of NaV1.2 at 500 nM” value (NaV1.2; highest tested concentration of 500 nM) of the same molecule?
A: Its value is “approximately 60%”.

Q: What about the “inhibitory activity against NaV1.2 (in words)” value (NaV1.2) of the same molecule?
A: Its value is “only weak inhibitory activity”.

B6: 10A7: CD73 antibody clone, VH SEQ ID NO: 73, VL SEQ ID NO: 83 (antibody, V domains shown)
VH: EVQLVESGGGLVQPGGSLRLSCAASGFAFSSYSMSWVRQAPGKGLEWIGSIYYSGSTYYNPSLKSRVTISADTSKNTAYLQMNSLRAEDTAVYYCARNSGFETLDYWGQGTLVTVSS
VL: DIQMTQSPSSLSASVGDRVTITCRASQGISRWLAWYQQKPGKAPNLLIYGASTLQSGVPPRFSGSRSGTDFTLTISSLQPEDFATYYCQQXYTTPPTFGQGTKLEI
modifications: VARIANT 91 natural amino acid or unnatural amino acid
Q: With B6 as the molecule, how does the IC50 (CD73) read?
A: The IC50 was 0.607 nM.

B7: 14H4-PEG3-ASF: antibody 14H4 conjugated with ASF-PEG3-DBCO (conjugate)
VH: EVQLVESGGGLVQPGGSLRLSCAASGFSFSKFWMHWVRQAPGKGLEWVAFMAHDESNKNYADSVKGRFTISADTSKNTAYLQMNSLRAEDTAVYYCARDKVCNTFDIWGQGTLVTVSS
VL: DIQMTQSPSSLSASVGDRVTITCRASQSISSDLNWYQQKPGKAPKLLIYRATFLESGVPSRFSGSRSGTDFTLTISSLQPEDFATYYCQQXYTTPPTFGQGTKLEI
modifications: not fully specified; non-natural residues
notes: antibody 14H4 conjugated with ASF-PEG3-DBCO
Q: How did the “inhibition rate of NaV1.7 at 100 nM” value (NaV1.7; 100 nM) turn out when B7 was run?
A: Its value is “about 30%”.

Q: And the “inhibition rate of NaV1.7 at 500 nM” value (NaV1.7; 500 nM)?
A: Its value is “about 40%”.

Q: What about the “inhibitory activity against NaV1.2 at 100 nM (in words)” value (NaV1.2; 100 nM Ab-ASF) of the same molecule?
A: Its value is “near-complete inhibition”.

B8: H3-PEG3-ASF: IgG1 Ab-UAA H3 conjugated with ASF-PEG3-DBCO (conjugate)
VH: EVQLVESGGGLVQPGGSLRLSCAASGFTFSDYWISWVRQAPGKGLEWIGNVYYSGNAYYNPSLESRVTISADTSKNTAYLQMNSLRAEDTAVYYCARNTGFETLDNWGQGTLVTVSS
VL: DIQMTQSPSSLSASVGDRVTITCRASQSISSWLAWYQQKPGKAPNLLMYAASSLQSGVPSRFSGSRSGTDFTLTISSLQPEDFATYYCQQXYTTPPTFGQGTKLEI
modifications: non-natural residues
notes: IgG1 Ab-UAA H3 conjugated with ASF-PEG3-DBCO
Q: How did the IC50 (NaV1.7; [1]) turn out when B8 was run?
A: Its IC50 is 1.13 ± 0.191 nM.

B9: ABN3-2G: CD73 antibody clone, VH SEQ ID NO: 77, VL SEQ ID NO: 87 (antibody, V domains shown)
VH: EVQLVESGGGLVQPGGSLRLSCAASGITFGSYTMSWVRQAPGKGLEWIGTVHYTGKTFYSPSLKSRVTISADTSKNTAYLQMNSLRAEDTAVYYCARGRDFGEPPYVRAFDIWGQGTLVTVSS
VL: DIQMTQSPSSLSASVGDRVTITCQASHDISKYLNWYQQKPGKAPKLLIYDASNLETGVPSRFSGSRSGTDFTLTISSLQPEDFATYYCQQXYTTPPTFGQGTKLEI
modifications: not fully specified; VARIANT 91 natural amino acid or unnatural amino acid
Q: How did the IC50 (CD73) turn out when B9 was run?
A: Its IC50 is 0.565 nM.

B10: 15A10-PEG3-ASF: Ab-UAA 15A10 conjugated to ASF-PEG3-DBCO (conjugate)
VH: EVQLVESGGGLVQPGGSLRLSCAASGFPFSGHWMHWVRQAPGKGLEWVSGISGTGATSHYADSVKGRFTISADTSKNTAYLQMNSLRAEDTAVYYCAREVITAASTDAFDLWGQGTLVTVSS
VL: DIQMTQSPSSLSASVGDRVTITCRASQSIGSSLHWYQQKPGKAPTVLIYAASSLQTGVPSRFSGSRSGTDFTLTISSLQPEDFATYYCQQXYTTPPTFGQGTKLEI
modifications: not fully specified; non-natural residues
notes: Ab-UAA 15A10 conjugated to ASF-PEG3-DBCO
Q: Which IC50 (NaV1.7; [2]) does the source give for B10 here?
A: Its IC50 is 0.138 ± 0.0414 nM.

B11: 10A7-Fab-BN3: papain-derived Fab of 10A7 conjugated with BN3, monovalent (conjugate)
VH: EVQLVESGGGLVQPGGSLRLSCAASGFAFSSYSMSWVRQAPGKGLEWIGSIYYSGSTYYNPSLKSRVTISADTSKNTAYLQMNSLRAEDTAVYYCARNSGFETLDYWGQGTLVTVSS
VL: DIQMTQSPSSLSASVGDRVTITCRASQGISRWLAWYQQKPGKAPNLLIYGASTLQSGVPPRFSGSRSGTDFTLTISSLQPEDFATYYCQQXYTTPPTFGQGTKLEI
modifications: non-natural residues
Q: Which “inhibitory activity against CD73 (in words)” value (CD73) does the source give for B11 here?
A: Its value is “retained strong inhibitory activity”.

B12: A4-PEG3-ASF: IgG1 Ab-UAA A4 conjugated with ASF-PEG3-DBCO (conjugate)
VH: EVQLVESGGGLVQPGGSLRLSCAASGFTFSGHWMHWVRQAPGKGLEWVSGISGSGGSTYYADSVKGRFTISADTSKNTAYLQMNSLRAEDTAVYYCARELTMATTTDAFDIWGQGTLVTVSS
VL: DIQMTQSPSSLSASVGDRVTITCQASQDIRNDLNWYQQKPGKAPKSLIYAASRLQSGVPSRFSGSRSGTDFTLTISSLQPEDFATYYCQQXYTTPPTFGQGTKLEI
modifications: non-natural residues
notes: IgG1 Ab-UAA A4 conjugated with ASF-PEG3-DBCO
Q: How did the IC50 (NaV1.7; [1]) turn out when B12 was run?
A: The IC50 was 1.22 ± 0.534 nM.

B13: 15C12-PEG3-ASF: Ab-UAA 15C12 conjugated to ASF-PEG3-DBCO (conjugate)
VH: EVQLVESGGGLVQPGGSLRLSCAASGFTFSGHWMHWVRQAPGKGLEWVSAISGSGGSTYYADSVKGRFTISADTSKNTAYLQMNSLRAEDTAVYYCARELTMASTTDAFDFWGQGTLVTVSS
VL: DIQMTQSPSSLSASVGDRVTITCQASQDISNSLNWYQQKPGKAPNLLIYATSNLQSGVPSRFSGSRSGTDFTLTISSLQPEDFATYYCQQXYTTPPTFGQGTKLEI
modifications: not fully specified; non-natural residues
notes: Ab-UAA 15C12 conjugated to ASF-PEG3-DBCO
Q: For B13, which IC50 (NaV1.7; [2]) is on record?
A: The IC50 was 0.0395 ± 0.00968 nM.
